Here are results for 5 molecules from paper PMC9392796, “A mannose-sensing AraC-type transcriptional activator regulates cell–cell aggregation of Vibrio cholerae” (NPJ Biofilms and Microbiomes, 2022).

Series [1] addresses T1, ManR (VC1825) (Vibrio cholerae, UniProt Q9KR22).
T1 construct: gene VC_1825
Conditions: 50 mM HEPES-NaOH pH 8.0, 500 mM NaCl, 10% glycerol, 1 mM TCEP, 0.5 mg/ml BSA, 0.05% Tween 20, 23 °C; NT-647-labelled protein 2 nM; effector (co-activator).

In series [2] the target is ManR (VC1825), AraC-type transcriptional regulator of Vibrio cholerae (Vibrio cholerae N16961). Nature of the series: not stated; Supplementary Fig. 3; method and conditions not shown.
Series [3] addresses ManR (VC1825) (Vibrio cholerae N16961, UniProt Q9KR22 1-279). Briefly: EMSA; one complex. Conditions: protein: recombinant; chain copies: 2; blunt.

In turn, `O=P(O)(O)OCC1(O)O[C@H](CO)[C@@H](O)[C@@H]1O` (some centres unmarked) [F1P, fructose 1-phosphate] had a Kd at ManR (VC1825) [1] of about 411 µM.

In the case of `O=P(O)(O)OC[C@H]1OC(O)[C@@H](O)[C@@H](O)[C@@H]1O` (some centres unmarked) [M6P, mannose 6-phosphate], on ManR (VC1825) [1], the Kd was about 0.152 µM. The molecule “ManR (VC1825), AraC-type transcriptional regulator of Vibrio cholerae (natural protein)” displayed a stoichiometry N in series [2] of 2.

B1: MB2 WT (dsDNA)
DNA 1: CAAACCAATAGAGTTACAATCCTCTAGTGAATGTTTTAT
DNA 2: ATAAAACATTCACTAGAGGATTGTAACTCTATTGGTTTG
For B1, the binding result with ManR (VC1825) [3] is “binds”.

B2: MB1 WT (dsDNA)
DNA 1: AGACAGAATGATACAATAATCCAGTTTTAACACCAATTC
DNA 2: GAATTGGTGTTAAAACTGGATTATTGTATCATTCTGTCT
Take B2: the binding result with ManR (VC1825) [3] is recorded as “binds”.
